Where a chain is given by its changes, count along the chain named. Ends that are not written are not given here.
T1: wild‐type SERF2 (human, UniProt P84101-1 1-59)
T1 sequence: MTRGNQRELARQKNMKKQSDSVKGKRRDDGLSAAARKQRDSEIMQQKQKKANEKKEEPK

B1: Asyn Med peptide (GKNEEGAPQEGI) of alpha‐synuclein, carboxyfluorescein-labeled (peptide)
peptide: GKNEEGAPQEGI
modifications: also: 5(6)-carboxyfluorescein label, site not given here
B2: Asyn worst peptide (MDVFMKGLSKAK) of alpha‐synuclein, carboxyfluorescein-labeled (peptide)
peptide: MDVFMKGLSKAK
modifications: also: 5(6)-carboxyfluorescein label, site not given here
B3: SERF2 KR mutant (natural protein)
chain: T1 sequence with K16R, K17R, K23R
B4: Asyn top peptide (YEMPSEEGYQDY) of alpha‐synuclein, carboxyfluorescein-labeled (peptide)
peptide: YEMPSEEGYQDY
modifications: also: 5(6)-carboxyfluorescein label, site not given here
B5: wild‐type SERF2 (natural protein)
chain: T1 sequence

Assays:
Experiment in all cases: MST
wild‐type SERF2 = target: T1, wild‐type SERF2
[1] = target: B1
[2] = target: B2
[3] = target: B4
[4] = target: amyloid beta peptide (strongest wild‐type SERF2 binding peptide from amyloid beta), carboxyfluorescein-labeled (human)

| Binder | binding result (wild‐type SERF2) | Kd [4] [µM] | further results |
| --- | --- | --- | --- |
| B1 | binds |  |  |
| B2 | binds |  |  |
| B3 |  | 6.6 | binding result [1]: binds; binding result [2]: binds; Kd [3]: 2.6 µM |
| B4 |  |  | Kd (wild‐type SERF2): 3 µM |
| B5 |  | 9.6 |  |

Source: article PMC8561633 (The EMBO Journal, 2021)
